Target: Recombinant Human Integrin α4β1 Protein, CF (human, UniProt P13612 35-977; P05556 21-728)
Assay: surface enhanced Raman spectroscopy

Chain of Recombinant Human Integrin α4β1 Protein, CF (P13612 35-977, chain 1 of 2): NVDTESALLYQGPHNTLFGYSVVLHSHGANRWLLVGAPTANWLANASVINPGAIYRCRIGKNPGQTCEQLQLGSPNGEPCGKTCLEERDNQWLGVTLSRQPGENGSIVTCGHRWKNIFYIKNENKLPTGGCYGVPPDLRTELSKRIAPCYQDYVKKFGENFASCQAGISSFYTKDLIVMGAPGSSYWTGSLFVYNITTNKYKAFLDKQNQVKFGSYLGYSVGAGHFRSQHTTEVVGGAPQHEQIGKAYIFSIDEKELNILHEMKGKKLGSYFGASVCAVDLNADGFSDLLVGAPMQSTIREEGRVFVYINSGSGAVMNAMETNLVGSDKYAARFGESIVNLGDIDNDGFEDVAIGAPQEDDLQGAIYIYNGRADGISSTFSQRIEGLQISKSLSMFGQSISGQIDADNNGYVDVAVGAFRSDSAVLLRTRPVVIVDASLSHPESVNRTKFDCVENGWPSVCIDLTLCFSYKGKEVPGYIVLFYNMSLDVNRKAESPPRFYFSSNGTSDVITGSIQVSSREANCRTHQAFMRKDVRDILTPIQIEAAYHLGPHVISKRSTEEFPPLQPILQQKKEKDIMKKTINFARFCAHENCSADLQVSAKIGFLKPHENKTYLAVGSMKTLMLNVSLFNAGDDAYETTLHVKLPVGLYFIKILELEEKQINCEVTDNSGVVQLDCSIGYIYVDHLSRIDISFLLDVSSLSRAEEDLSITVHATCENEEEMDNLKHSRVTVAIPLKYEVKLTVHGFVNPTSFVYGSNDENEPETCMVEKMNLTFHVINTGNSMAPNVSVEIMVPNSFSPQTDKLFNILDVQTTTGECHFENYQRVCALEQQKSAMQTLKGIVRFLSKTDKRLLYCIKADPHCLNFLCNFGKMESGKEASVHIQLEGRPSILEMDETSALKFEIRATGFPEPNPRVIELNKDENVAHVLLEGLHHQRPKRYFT
Chain of Recombinant Human Integrin α4β1 Protein, CF (P05556 21-728, chain 2 of 2): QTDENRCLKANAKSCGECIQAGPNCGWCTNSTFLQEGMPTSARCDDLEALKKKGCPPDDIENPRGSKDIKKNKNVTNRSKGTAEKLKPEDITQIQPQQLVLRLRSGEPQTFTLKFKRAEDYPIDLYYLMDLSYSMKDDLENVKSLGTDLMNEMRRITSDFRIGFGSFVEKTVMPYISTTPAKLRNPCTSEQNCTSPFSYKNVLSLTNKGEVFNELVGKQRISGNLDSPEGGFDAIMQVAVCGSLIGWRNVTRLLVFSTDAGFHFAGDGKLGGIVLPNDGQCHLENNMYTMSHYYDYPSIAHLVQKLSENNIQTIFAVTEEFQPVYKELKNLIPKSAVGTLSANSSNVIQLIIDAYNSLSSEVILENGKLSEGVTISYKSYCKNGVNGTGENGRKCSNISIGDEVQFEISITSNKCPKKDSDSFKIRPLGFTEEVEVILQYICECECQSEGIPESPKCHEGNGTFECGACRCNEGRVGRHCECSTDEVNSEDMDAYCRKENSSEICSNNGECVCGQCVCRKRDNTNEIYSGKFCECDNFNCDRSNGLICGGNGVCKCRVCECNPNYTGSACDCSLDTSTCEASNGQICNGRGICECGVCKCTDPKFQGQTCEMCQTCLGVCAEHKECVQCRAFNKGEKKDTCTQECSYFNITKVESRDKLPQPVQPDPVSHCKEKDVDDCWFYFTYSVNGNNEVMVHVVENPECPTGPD

binding result: binds
B1: Cys-Asp-Pro-Gly-Tyr-Ile-Gly-Ser-Arg (CDPGYIGSR) (peptide)
peptide: CDPGYIGSR
modifications: not fully specified; functionalized onto gold coated magnetic nanoparticles (thiol chemistry of the Cys)
